Results as given in publication PMC7508745.

Target: Skp(S126C) (UniProt P0AEU7)
Experiment: SEC; HiLoad 16/600 Superdex 200 pg; NMR buffer (20 mM MES, pH 6.5, 150 mM NaCl, 1 mM DTT); refolded protein eluted at 79 mL

stoichiometry N: 3
Substance: Skp(S126C) (from UniProt P0AEU7 21-161) (natural protein)
